Data as given in paper PMC3173608, “Atomic Resolution Insights into Curli Fiber Biogenesis” (Structure(London, England:1993), 2011).
Values joined by “and” are separate entries in the source; they are usually repeats but may differ in a detail not shown here. Equal entries are not always repeated.

Target: the molecule itself
Assay: SEC + native gel or EMSA

B1: CsgG-6xHis (natural protein)
chain: CLTAPPKEAARPTLMPRAQSYKDLTHLPAPTGKIFVSVYNIQDETGQFKPYPASNFSTAVPQSATAMLVTALKDSRWFIPLERQGLQNLLNERKIIRAAQENGTVAINNRIPLQSLTAANIMVEGSIIGYESNVKSGGVGARYFGIGADTQYQLDQIAVNLRVVNVSTGEILSSVNTSKTILSYEVQAGVFRFIDYQRLLEGEVGYTSNEPVMLCLMSAIETGVIFLINDGIDRGLWDLQNKAERQNDILVKYRHMSVPPES
modifications: C16 becomes the lipidated N terminus of the mature protein (said of CsgG in general)
notes: also called recombinant CsgG-6xHis; protein-detergent complex; not shown: His6, C-terminal, kept
stoichiometry N: 7 protomers and 9 protomers
